According to paper PMC5585231:

Target: CD3 ζ SNID2 peptide (22-mer)
Test: ITC; MicroCal iTC200; 20 mM HEPES (pH 8.0), 100 mM NaCl, 25 °C; typically Nef at 200 μM injected from the syringe to 20 μM CD3 ζ in the cell

Chain of CD3 ζ SNID2 peptide (22-mer) (P20963 other isoform, or with tags, fused parts or gaps): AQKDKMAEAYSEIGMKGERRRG

SIV_(mac239) Nef 66–235 (SIV Nef-B) (from UniProt Q5QGG3 66-235) (domain or fragment)
Kd: 2600 nM
